Here are results for one molecule from patent US20220112547, “BIOCHEMICAL REACTION METHODS AND REAGENTS COMPRISING INTRINSICALLY DISORDERED REGIONS” (Biocrucible Limited, published 2022).

The target of one data set is T1, Gp32-HRP1 (phage vB_EcoM_NBG1).
T1 chain: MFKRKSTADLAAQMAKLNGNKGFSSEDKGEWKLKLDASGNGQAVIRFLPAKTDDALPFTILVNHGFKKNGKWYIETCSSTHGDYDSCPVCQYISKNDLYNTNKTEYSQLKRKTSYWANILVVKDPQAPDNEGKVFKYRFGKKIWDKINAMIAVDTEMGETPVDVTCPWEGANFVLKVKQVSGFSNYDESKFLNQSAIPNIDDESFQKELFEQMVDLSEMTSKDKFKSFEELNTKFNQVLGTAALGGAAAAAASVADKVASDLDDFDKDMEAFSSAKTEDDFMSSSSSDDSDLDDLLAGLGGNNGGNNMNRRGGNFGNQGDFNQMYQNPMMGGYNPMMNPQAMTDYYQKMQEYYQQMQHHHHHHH
Put plainly: oligo enriched in phase-separated particles; MgOAc, RPA mix, no crowding agent. The settings on record: tags: C-terminal HRP1 IDR (S. cerevisiae Hrp1) and 7xHis; label: FAM. As for the experimental part: (§1) Reactions were set up according to the following protocol. A reaction mixture was created with the following components: 25 mM Tris HCl pH 8.3, 7.5 mM KOAc, 1 mM DTT, 2.5 mM ATP, 20 mM phosphocreatine, 1 μM creatine kinase, 1 mM dNTPs, 0.2 μM forward primer, 0.2 μM reverse primer, 0.516 μM probe, 22.6 μM Gp32-HRP fusion, 8.4 μM UvsX, 15.3 μM UvsY, 0.135 μM S. aureus DNA polymerase (large subunit), and 0.27 μM Exonuclease III. Gp32, UvsX, UvsY, polymerase and Exonuclease III were prepared as a premix before being added in one step to the mixture of primer, buffer, nucleotides and creatine kinase. The total volume was 44 Once combined, 6 μl of 280 mM MgOAc was added to the mixture to achieve a final concentration of 33 mM. 10 μl of the reaction mix was then transferred to a C-Chip haemocytometer slide which was placed on a heated stage set to 39° C. before being observed under the microscope where images were taken under bright field light conditions and fluorescence conditions.

The target of the next data set is T2, Gp32-HIS2 (phage vB_EcoM_NBG1).
T2 chain: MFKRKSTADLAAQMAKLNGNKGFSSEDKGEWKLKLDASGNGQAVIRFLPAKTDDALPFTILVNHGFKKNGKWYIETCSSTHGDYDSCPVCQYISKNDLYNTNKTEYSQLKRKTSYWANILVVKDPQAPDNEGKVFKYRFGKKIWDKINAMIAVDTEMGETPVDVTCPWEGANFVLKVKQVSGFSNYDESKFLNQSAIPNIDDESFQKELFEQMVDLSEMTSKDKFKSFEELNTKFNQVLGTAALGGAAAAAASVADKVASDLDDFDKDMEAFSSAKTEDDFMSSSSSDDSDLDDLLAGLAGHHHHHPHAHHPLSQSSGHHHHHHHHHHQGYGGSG
The data set is described as above. The settings on record: tags: C-terminal HIS2 IDR (human OTX1); label: FAM. Here is the method:
as §1, with “Gp32-HIS2” for “Gp32-HRP”, “Gp32-His2,” for “Gp32,”

For the molecule CCGCAATGGTGCACTCTCAGTACAATCTGCTCTGATG (ssDNA) [FAM oligo probe], the binding result in the data set with Gp32-HRP1 and with Gp32-HIS2 was “binds” throughout.
